Experiments:
SADS FP peptide = SADS FP peptide (SADS); assay: peptide ELISA
HCoV-229E S ectodomain = target: T1, HCoV-229E S ectodomain (HCoV-229E); assay: ELISA on coated S
T1 construct: range 17-1142

HKU24 HR2 peptide = HKU24 HR2 peptide (HKU24); assay: peptide ELISA
[1] = target: C-terminally truncated SARS-CoV-2 S protein (pSARS-CoV2-Strunc), ancestral (SARS-CoV-2, UniProt P0DTC2 14-1273); assay: cell-based or functional assay
[2] = target: SARS-CoV-2 S of the Ancestral pseudovirus (pSARS-COV2-Strunc) (SARS-CoV-2 (ancestral), UniProt P0DTC2 14-1254); assay: cell-based or functional assay

Binder	EC50 (SADS FP peptide)	EC50 (HCoV-229E S ectodomain)	EC50 (HKU24 HR2 peptide)	Ancestral Pseudovirus IC50 [1]	Ancestral Pseudovirus IC50 [2]
fp.011 (antibody, V domains shown) VH: EVQLLESGGGLVQPGGSLRLSCAGSGFTFNNYAMTWVRQAPGRGLEWVSAISGSGGSSHYADSVKGRFTITRDNSKNTLYLQMNSLRAEDTAVYYCAFIDYYSGWSYYYGLDVWGQGTTVTVSS VL: EIVLTQSPATLSLSPGERATLSCRASQGVRTYVAWYQQKPGQAPRLLIYDASNRATGIPARFSGSGSGTDFTLTISSLEPEDFAVYYCQQRYNWPLCSFGQGTKLEIK	0.0276 µg/mL	0.151 µg/mL			
hr2.015 (antibody, V domains shown) VH: QVQLVQSGAEVKKPGASVKVSCKASGYTFSSYYVNWVRQAPGQGLEWLGIINRSGSSTIYAQKFQGRVTMTRDTSTSTVYLELSSLRSEDTAVYYCARDQDHALHWGQGTLVTVSS VL: QSVLTQPPSVSAAPGQKVTISCSGSSSNIGSNYVSWYQQLPGTAPKLLIYDNSERPSGIPDRFSGSRSGTSATLGITGLQTGDEADYYCGTWDTSLSAWVFGGGTKLTVL			0.0482 µg/mL	3.83 µg/mL	
rbd.035 (antibody, V domains shown) VH: EVQLLESGGGLIEPGGSLRLSCAASGFPFNTFAMTWVRQPPGKGLEWVATISSRGDYTFYADFVKGRFSISRDNANNALWLDMSGLRAEDTALYYCAKGESGYDLYLYGLDLWGQGTTVTVSS VL: DIQMTQSPSSLSASVGDGVTITCRASQNINNYLSWYQKKAGKAPKLLIYGASTLHSGVPSRFSGSGSGTDFTLTISSLQPEDFASYYCQQNSPTPPWTFGQGTKVEIK					0.00152 µg/mL
rbd.031 (antibody, V domains shown) VH: EVQLVESGGGVVQPGRSLRLSCAASGFTFKTYGMHWVRQAPGKGLEWVAVISYEGSNEYYAESVKGRFTISRDNSKNTLYLHMNSLRAEDTAVYYCAKGEYYYHSSTYYYLDYWGRGTLVTVSS VL: DIQMTQSPSTLSASVGDRVTITCRASQSISSWLAWYQQKPGKAPKVLIYDASSLQSGVPLRFSGSGSGTEFTLTISSLQPDDFATYYCQQYDTYWTFGQGTKVEIK					0.862 µg/mL
fp.004 (antibody, V domains shown) VH: VQLVESGGGVVQPGTSLRLSCVASGFTFSNYAMHWVRQAPGKGLEWVAIISFDTRNTASAASVKGRFNISRDNSKNSLYLQMNSLRPEDTGVYYCARDLFLSDYDSRGYDPITGGFDCWGQGTLVTVSS VL: EIVMTQSPAALSVSPGEGATLSCRASQSVGSRLAWYQQKLGRPPRLLIYGASTRATGIPARFSGSGSGTEFTLTISSLQSEDFAVYYCQQYNDWPLLTFGGGTKVKIK	0.0276 µg/mL	0.037 µg/mL		7.84 µg/mL	
fp.001 (antibody, V domains shown) VH: VQLVESGGGVVQPGRPLRLSCSGSGFIFSNYAMHWVRQAPGKGLEWVAIISFDARNKRYADSVEGRFTISRDNSKNILYLQMNSLRLEDSAVYFCARDLFLSDYDNGVYDPTRGGFDYWGQGTLVTVSS VL: EIVMTQSPATLSLSPGERATLSCRASQSVNNRLAWYQQKLGQPPRLLISGASTRATGIPARFTGSGSGTEFTLTISSLQSEDFAVYYCQQYHDWPLLSFGGGTKVEIK	0.0255 µg/mL	0.028 µg/mL		2.19 µg/mL	
fp.003 (antibody, V domains shown) VH: VQLVESGGGVVQPGTSLRLSCTASGFSFSNYAMHWVRQAPGKGLEWVAIISFDTRNKEFADSVKGRFSISRDNSKNSLNLQMNSLRPEDTGVYYCARDLFLSDYDSRGYEPSRGGFDYWGQGTLVTVSS VL: EIVMTQSPATLSVSPGERATLSCRASQSVSSSLAWYQQKLGQPPRLLIYGASTRATGIPARFSGSGSGTEFTLTISSLKSEDSAVYYCQQYNDWPLLSFGGGTKVEIK	0.0305 µg/mL	0.0443 µg/mL		9.26 µg/mL	
fp.010 (antibody, V domains shown) VH: EVQLLESGGGLVQPGGSLRLSCAASGFTFSTYAMNWVRQAPGKGLEWVSAISSSGLSTQYADSVRGRFTISRDTSKNTLYLHMNSLRAGDTAVYYCAKVEYSGYDPRGPFDSWGQGTLVTVSS VL: DIQMTQSPSTLSASVGDRVTITCRASQSISGWLAWYQQKPGRAPKLLIYKASSLERGVPSRFSGSGSGTEFTLTISSLQPDDFATYYCQEYSSYPLCTFGQGTKLEIK	0.0644 µg/mL				
hr2.020 (antibody, V domains shown) VH: EVQLVQSGAEVKKPGESLKISCKGSGYRFASHWIGWVRQMPGKGLQWMGIIYPGDSDTKYSPSFQGQVTISADKSINTVYLHWTSLKASDTAVYYCARRPPHLDGGDSPIRFDHWGQGTLVTVSS VL: QSVLTQPPSASGTPGQRVTISCSGSRSNIGSNDVYWYQQFPGTAPKLLIYRNNQRPSGVPDRFSGSKSGTSASLAISGLRSEDEADYYCATWDDRLTGVFGGGTKLTVV			0.0329 µg/mL		
fp.008 (antibody, V domains shown) VH: VQLVESGGGVVQPGRSLRLSCRASGFRFNNYAMHWVRQAPGKGLEWVAIISYEARNEKYAASVKGRFSISRDNAKNTLYLQMNSLRPEDTAIYYCARDVFLSDYDQSGYDVTRGGFDYWGQGTLVTVSS VL: EIVMTQSPATLSVSPGESATLSCRASQSVSSSLAWYQHKFGQAPRLLIYGASTRATGIPDRFSGSGSGMEFTLTISSLQSEDVAIYYCQQYGDWPLVTFGGGTKVEIK	0.024 µg/mL	0.0482 µg/mL		3.56 µg/mL	
fp.009 (antibody, V domains shown) VH: VQLVESGGGVVQPGTSLTLSCEASGFTFSNYAMHWVRQAPGKGLEWVAIISFDTRNKKFAGSVQGRFSISRDNAKNSIYLQMNNLRPEDTGIYYCARDVFLSDYDSRGFDRTRGGFDYWGQGTLVTVSS VL: EIVMTQSPATLSVSPGEKATLSCRASESVGSSLAWYQQKLGQAPRLLIYGASTRATGIPARFSGSGSGAEFTLTISSLQSEDFAIYYCQQYGDWPLLTFGGGTKVEIK	0.0247 µg/mL	0.0285 µg/mL		0.873 µg/mL	
fp.002 (antibody, V domains shown) VH: VQLVESGGGVVQPGTSLRLSCAGSGFNFDNYAIHWVRQAPGQGLEWVAIISYEARNKKYAGSVTGRFSISRDNSKSMVYLQMDSLRGEDTAVYYCARDLFLSDYDRSGYDPTRGGFDLWGQGTLVTVSS VL: EIVMTQSPATLSVSPGERATLSCRASQSVSSSLAWYQHKLGQAPRLLIYGASTRATGIPGRFSGSGSGTEFTLTISSLQSEDVAIYYCQQYGDWPLVTFGGGTKVEIK	0.0252 µg/mL	0.04 µg/mL		16.1 µg/mL	
fp.006 (antibody, V domains shown) VH: VQLVESGGGVVQPGGSLRLSCAASGFNFNNYALHWVRQAPGKGLEWVAIISYEARNKKYGVSVMGRFSISRDNSKSIMYLEMNSLRVEDTGVYYCARDLFLSDYDRSGYDPTRGGFDHWGQGTLVTVSS VL: EIVMTQSPATLSVSPGERATLSCRASQSVSSSLAWYQHRFGQAPRLLISGASTRATGIPGRFSGSGSGTEFTLTISSLQSEDVAVYYCQQYGDWPLVTFGGGTKVEIK	0.0154 µg/mL	0.0349 µg/mL			
hr2.021 (antibody, V domains shown) VH: QVQLVQSGAEVKKPGASVKVSCKASEAIFSGSYLHWVRQAPGQGLEWMGIITPSGDKTFYAQRFQGRLTMTRDTSTNTLHMHLSGLNSEDTAMYYCARQADKGGWDYWGQGTLVTVSS VL: EIVLTQSPGTLSLSPGERATLSCRASQSVTSNYVAWYQQKPGQAPRLLIYGASTRATGIPDRFSGGGSGTDFTLTITRLEPEDFAVYYCQQYGSSPPTFTFGPGTKVDIK			0.0195 µg/mL	3.02 µg/mL	
hr2.024 (antibody, V domains shown) VH: QVQLVQSGAEVKKPGASVKVSCKASEDIFTDSYLHWVRQAPGQGLEWMGIITPSGDKTFYAQQFQGRLTMTRDPSTNTLYMFLSGLRSDDTAMYFCARQAEKGGWDYWGHGTLVTVSS VL: EIVLTQSPGTLSLSPGQRATLSCRSSQTITSNYLAWYQQRPGQAPRLLIYGASIRATGIPDRFSGSGSGTDFTLTISRLEPEDFAVYYCQQYGSSPPTFIFGPGTKVDIK			0.0218 µg/mL	0.301 µg/mL	
rbd.045 (antibody, V domains shown) VH: QVQLQESGPGLVKPSETLSLTCTVSGGAFRSFFWTWIRQPPGKGLEWIGNIYYSGSTNYNPSLKSRVTISQDMSENQFSLKLSSVTAADTAVYYCARSQWLRGNFDHWGQGILVTVSS VL: NFMLTQPHSVSESPGKTVTISCTATSGYIASNYVQWYQQRPGSAPTTVIYEDNQRPSGVPDRFSGSIDSSSNSASLTISGLKPEDEADYYCQSFDTAYAVFGGGTQLTVL					0.00557 µg/mL
rbd.038 (antibody, V domains shown) VH: QVQLVQSGAEVKKPGASVKVSCKASGYTFSGYYMHWVRQAPGQGLEWVGWISPTSGGTKYAQKFQGRVTMTRDTSITTVYMELNRLRSDDTAVYYCAREPFPYCTSDICHSNYFYYYAMDVWGQGTTVTVSS VL: QSALTQPPSASGSPGQSVTISCTGSSSDLGDHNYVSWYQQHPGKAPKVMIYEVSKRPSGVPDRFSGSKSGNTASLTVSGLQAEDEADYYCSSYAGSLYVFGTGTKVTVL					0.000552 µg/mL
rbd.048 (antibody, V domains shown) VH: EVQLVESGGGLVQPGGSLRLSCAASGFTVSSNYMTWVRQAPGKGLEWVSVIYSGGSTFYTDSVKGRFTISRDNSKNTLYLQMNSLRAEDTAVYYCARDVVYYGMDVWGQGTTVTVSS VL: DIQMTQSPSSLSASVGDRVTITCRASQSISSYLNWYQQKPGKAPKLLIYAASSLQSGVPSRFSGSGSGTDFTLTISSLQPEDFATYYCQESYSNSPYTFGQGTKLEIK					0.00275 µg/mL
hr2.017 (antibody, V domains shown) VH: EVQLVESGGGLVQPGGSLRLSCAVSGFAFSSSWMHWIRQAPGRGLVWVSRINRDGSTTDYADSVKGRFTISRDNAKATLYLQMNSLRAEDTAVYYCATMGFDYWGQGALVTVSS VL: DIVMTQSPDSLAVSLGERATINCKSSQNVLYSSNNKNHLSWYQQKPGQPPKLLIYWASTRKSGVPDRFSGSGSGTDFTLTINSLQAEDVAVYYCQQYFSTPNTFGQGTKLEIK			0.0176 µg/mL	0.542 µg/mL	
rbd.043 (antibody, V domains shown) VH: QVQLVQSGAEVKKPGSSVKVSCKVSGGSFSNYGISWVRQAPGQGLEWMGGIIPLFGPADYAQKVQGRVTITADKSTSTAYMELRSLRSEDTAVYFCARGVEIVATIVGPLVREDHYYYYGMDVWGQGTTVTVSS VL: not shown					0.000573 µg/mL
